This note sets out measurements from the supplement of paper PMC10567573.

B1: TRIM29 (parent)
chain: RKCPVHGKTMELFCQTDQTCICYL
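Note: lentivirally expressed fusions sorted by FACS into six bins by GFP to DsRed ratio, PSI derived from sequencing read proportions per bin multiplied by bin number.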

Variants of B1 are the subject of the data set. As to the kind of experiment: protein stability index of a GFP-peptide fusion (GPS, HEK-293T) (PSI 1-6); higher = more stable. As to conditions: c terminus: a fixed tail appended.
As for RKCPVHGKKMELFCQTDQTCICYL [T9K], the protein stability index is 2.46.
Under RKCPVHGKGMELFCQTDQTCICYL [T9G] stands 2.72; under RKCPVHGKRMELFCQTDQTCICYL [T9R], 1.21.
RKCPVHGKDMELFCQTDQTCICYL [T9D]: the protein stability index stood at 2.81.
Take RKCPVHGKSMELFCQTDQTCICYL [T9S]: the protein stability index is 3.03.
The figure for RKCPVHGKPMELFCQTDQTCICYL [T9P] is 1.98; for RKCPVHGKIMELFCQTDQTCICYL [T9I] it is 1.49; for RKCPVHGKMMELFCQTDQTCICYL [T9M] it is 2.77.
Take RKCPVHGKNMELFCQTDQTCICYL [T9N]: the protein stability index worked out at 2.79.
Take RKCPVHGKYMELFCQTDQTCICYL [T9Y]: the protein stability index amounted to 2.25.
The figure for RKCPVHGKEMELFCQTDQTCICYL [T9E] is 2.06; for RKCPVHGKAMELFCQTDQTCICYL [T9A] it is 2.95.
Under RKCPVHGKCMELFCQTDQTCICYL [T9C] stands 1.75.
Under RKCPVHGKFMELFCQTDQTCICYL [T9F] stands 3.32; under RKCPVHGKVMELFCQTDQTCICYL [T9V], 2.41; under RKCPVHGKWMELFCQTDQTCICYL [T9W], 2.42.
Consider RKCPVHGKHMELFCQTDQTCICYL [T9H], for which the protein stability index is 1.78.
The figure for RKCPVHGKQMELFCQTDQTCICYL [T9Q] is 1.77; for RKCPVHGKLMELFCQTDQTCICYL [T9L] it is 2.56.
The figure for RKCPVHGSTMELFCQTDQTCICYL [K8S] is 1.44; for RKCPVHGLTMELFCQTDQTCICYL [K8L] it is 1.37; for RKCPVHGWTMELFCQTDQTCICYL [K8W] it is 2.77.
Under RKCPVHGDTMELFCQTDQTCICYL [K8D] stands 1.94; under RKCPVHGETMELFCQTDQTCICYL [K8E], 2.59; under RKCPVHGPTMELFCQTDQTCICYL [K8P], 1.48.
Regarding RKCPVHGFTMELFCQTDQTCICYL [K8F], the protein stability index came out at 2.24.
Take RKCPVHGMTMELFCQTDQTCICYL [K8M]: the protein stability index came out at 2.45.
RKCPVHGCTMELFCQTDQTCICYL [K8C]: the protein stability index amounted to 1.85.
Under RKCPVHGNTMELFCQTDQTCICYL [K8N] stands 2.56; under RKCPVHGYTMELFCQTDQTCICYL [K8Y], 1.23.
In the case of RKCPVHGGTMELFCQTDQTCICYL [K8G], the protein stability index stood at 1.59.
For RKCPVHGITMELFCQTDQTCICYL [K8I], the protein stability index came out at 1.59.
The figure for RKCPVHGRTMELFCQTDQTCICYL [K8R] is 2.09.
The figure for RKCPVHGTTMELFCQTDQTCICYL [K8T] is 2.52.
The figure for RKCPVHGQTMELFCQTDQTCICYL [K8Q] is 2.
On to RKCPVHGATMELFCQTDQTCICYL [K8A], for which the protein stability index was found to be 2.58.
The figure for RKCPVHGVTMELFCQTDQTCICYL [K8V] is 2.54; for RKCPVHGHTMELFCQTDQTCICYL [K8H] it is 2.83; for RKCPVHGKTMYLFCQTDQTCICYL [E11Y] it is 1.8.
The figure for RKCPVHGKTMDLFCQTDQTCICYL [E11D] is 2.49; for RKCPVHGKTMHLFCQTDQTCICYL [E11H] it is 2.56; for RKCPVHGKTMMLFCQTDQTCICYL [E11M] it is 1.7.
The figure for RKCPVHGKTMRLFCQTDQTCICYL [E11R] is 2.14; for RKCPVHGKTMKLFCQTDQTCICYL [E11K] it is 1.92.
As for RKCPVHGKTMILFCQTDQTCICYL [E11I], the protein stability index is 2.77.
Under RKCPVHGKTMNLFCQTDQTCICYL [E11N] stands 2.55; under RKCPVHGKTMPLFCQTDQTCICYL [E11P], 2.95; under RKCPVHGKTMTLFCQTDQTCICYL [E11T], 2.66.
Under RKCPVHGKTMFLFCQTDQTCICYL [E11F] stands 1.76; under RKCPVHGKTMVLFCQTDQTCICYL [E11V], 2.9; under RKCPVHGKTMWLFCQTDQTCICYL [E11W], 2.41.
The figure for RKCPVHGKTMALFCQTDQTCICYL [E11A] is 1.83; for RKCPVHGKTMGLFCQTDQTCICYL [E11G] it is 2.31.
Regarding RKCPVHGKTMSLFCQTDQTCICYL [E11S], the protein stability index stood at 2.85.
The figure for RKCPVHGKTMQLFCQTDQTCICYL [E11Q] is 1.47; for RKCPVHGKTMLLFCQTDQTCICYL [E11L] it is 3.23; for RKCPVHGKTFELFCQTDQTCICYL [M10F] it is 2.58.
Under RKCPVHGKTVELFCQTDQTCICYL [M10V] stands 1.98; under RKCPVHGKTDELFCQTDQTCICYL [M10D], 2.44.
Under RKCPVHGKTYELFCQTDQTCICYL [M10Y] stands 1.83; under RKCPVHGKTIELFCQTDQTCICYL [M10I], 3.45; under RKCPVHGKTQELFCQTDQTCICYL [M10Q], 1.87.
Regarding RKCPVHGKTWELFCQTDQTCICYL [M10W], the protein stability index was determined as 1.46.
Consider RKCPVHGKTRELFCQTDQTCICYL [M10R], for which the protein stability index turned out to be 2.84.
The figure for RKCPVHGKTEELFCQTDQTCICYL [M10E] is 1.46.
The figure for RKCPVHGKTNELFCQTDQTCICYL [M10N] is 2.14; for RKCPVHGKTCELFCQTDQTCICYL [M10C] it is 1.94; for RKCPVHGKTHELFCQTDQTCICYL [M10H] it is 2.43.
As for RKCPVHGKTLELFCQTDQTCICYL [M10L], the protein stability index was 1.99.
As to RKCPVHGKTTELFCQTDQTCICYL [M10T], the protein stability index was 1.49.
Turning to RKCPVHGKTKELFCQTDQTCICYL [M10K], the protein stability index amounted to 2.02.
Under RKCPVHGKTAELFCQTDQTCICYL [M10A] stands 1.87.
As for RKCPVHGKTSELFCQTDQTCICYL [M10S], the protein stability index came to 2.43.
Under RKCPVHGKTGELFCQTDQTCICYL [M10G] stands 1.65; under RKCPVHGKTPELFCQTDQTCICYL [M10P], 2.35; under RKCPVHYKTMELFCQTDQTCICYL [G7Y], 2.14.
Regarding RKCPVHGKTMEDFCQTDQTCICYL [L12D], the protein stability index worked out at 2.81.
The figure for RKCPVHGKTMERFCQTDQTCICYL [L12R] is 1.99; for RKCPVHGKTMEIFCQTDQTCICYL [L12I] it is 2.47; for RKCPVHGKTMENFCQTDQTCICYL [L12N] it is 1.99.
On to RKCPVHGKTMESFCQTDQTCICYL [L12S], for which the protein stability index is 2.65.
Under RKCPVHGKTMEEFCQTDQTCICYL [L12E] stands 1.53.
Under RKCPVHGKTMEHFCQTDQTCICYL [L12H] stands 2.66; under RKCPVHGKTMEMFCQTDQTCICYL [L12M], 2.98.
Under RKCPVHGKTMEVFCQTDQTCICYL [L12V] stands 2.87; under RKCPVHGKTMEPFCQTDQTCICYL [L12P], 2.08; under RKCPVHGKTMEYFCQTDQTCICYL [L12Y], 2.86.
RKCPVHGKTMEGFCQTDQTCICYL [L12G]: the protein stability index amounted to 1.68.
As to RKCPVHGKTMECFCQTDQTCICYL [L12C], the protein stability index stood at 2.81.
RKCPVHGKTMEAFCQTDQTCICYL [L12A]: the protein stability index turned out to be 2.21.
On to RKCPVHGKTMEWFCQTDQTCICYL [L12W], for which the protein stability index was 1.08.
Under RKCPVHGKTMETFCQTDQTCICYL [L12T] stands 1.58; under RKCPVHGKTMEKFCQTDQTCICYL [L12K], 1.46.
The figure for RKCPVHGKTMEFFCQTDQTCICYL [L12F] is 1.61.
